In paper PMC10786891, “Massively parallel profiling of RNA-targeting CRISPR-Cas13d”:
Changes are numbered by the printed parent chain. Names may count otherwise.

T1: EsCas13d, nuclease-dead (Eubacterium siraeum, UniProt B0MS50, R295A;H300A;R849A;H854A)
T1 sequence: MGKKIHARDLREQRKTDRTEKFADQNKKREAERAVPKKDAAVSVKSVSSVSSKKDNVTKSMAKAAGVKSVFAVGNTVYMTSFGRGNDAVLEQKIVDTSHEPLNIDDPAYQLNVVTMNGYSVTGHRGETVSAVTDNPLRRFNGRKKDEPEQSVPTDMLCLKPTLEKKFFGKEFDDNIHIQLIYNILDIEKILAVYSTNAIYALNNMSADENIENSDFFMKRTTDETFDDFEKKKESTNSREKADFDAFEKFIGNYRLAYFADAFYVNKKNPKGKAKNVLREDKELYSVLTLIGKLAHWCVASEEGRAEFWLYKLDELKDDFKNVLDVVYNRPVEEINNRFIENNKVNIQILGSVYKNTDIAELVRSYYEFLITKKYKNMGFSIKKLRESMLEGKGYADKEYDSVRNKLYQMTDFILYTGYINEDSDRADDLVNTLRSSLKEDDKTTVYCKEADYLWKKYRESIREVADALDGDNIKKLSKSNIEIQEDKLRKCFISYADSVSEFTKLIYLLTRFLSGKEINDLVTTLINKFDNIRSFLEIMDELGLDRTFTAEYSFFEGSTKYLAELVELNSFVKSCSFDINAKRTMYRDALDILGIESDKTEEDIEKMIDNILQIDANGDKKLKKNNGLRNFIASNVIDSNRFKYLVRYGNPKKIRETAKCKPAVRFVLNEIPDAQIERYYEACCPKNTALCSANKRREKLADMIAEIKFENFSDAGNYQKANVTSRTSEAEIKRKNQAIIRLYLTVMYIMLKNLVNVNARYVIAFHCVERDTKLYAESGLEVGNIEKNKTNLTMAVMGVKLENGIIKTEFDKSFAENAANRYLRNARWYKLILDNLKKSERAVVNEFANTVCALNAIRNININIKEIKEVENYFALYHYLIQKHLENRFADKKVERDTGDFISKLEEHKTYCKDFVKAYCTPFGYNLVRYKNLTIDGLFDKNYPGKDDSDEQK

B1: target 1 MT 5'PFS GCA 3'PFS AAA (mixed)
RNA 1: CACCCGUGCAAAAAUGCAGGGGUCUAAAACUGAGCGGAUAACCUCUCUAUGG
RNA 2: GGGAAUGGAUCCACAUCUACGAAUUCGCACCAUAGAGAGGUUAUCCGCUCAAAAAGAUCGGAAGAGCACACGU
B2: target 1 MT 5'PFS GCC 3'PFS AUG (mixed)
RNA 1: B1 RNA 1
RNA 2: B1 RNA 2 with A29C, A53U, A54G
B3: target 1 MT 5'PFS GCA 3'PFS AAC (mixed)
RNA 1: B1 RNA 1
RNA 2: B1 RNA 2 with A54C
B4: target 1 MT 5'PFS GCC 3'PFS AUA (mixed)
RNA 1: B1 RNA 1
RNA 2: B1 RNA 2 with A29C, A53U
B5: target 1 MT 5'PFS GCC 3'PFS AUC (mixed)
RNA 1: B1 RNA 1
RNA 2: B1 RNA 2 with A29C, A53U, A54C
B6: target 1 insA 3' of 17,insA 3' of 6 (mixed)
RNA 1: B1 RNA 1
RNA 2: GGGAAUGGAUCCACAUCUACGAAUUCGUACCAUAGAAGAGGUUAUCCAGCUCACCGAGAUCGGAAGAGCACACGU
B7: target 1 MT 5'PFS GCA 3'PFS AAG (mixed)
RNA 1: B1 RNA 1
RNA 2: B1 RNA 2 with A54G
B8: target 1 MT 5'PFS AAG 3'PFS CAU (mixed)
RNA 1: B1 RNA 1
RNA 2: B1 RNA 2 with G27A, C28A, A29G, A52C, A54U
B9: target 1 MT 5'PFS GCC 3'PFS AUU (mixed)
RNA 1: B1 RNA 1
RNA 2: B1 RNA 2 with A29C, A53U, A54U
B10: target 1 MT 5'PFS GCA 3'PFS AAU (mixed)
RNA 1: B1 RNA 1
RNA 2: B1 RNA 2 with A54U
B11: target 1 MT 5'PFS AAG 3'PFS CAA (mixed)
RNA 1: B1 RNA 1
RNA 2: B1 RNA 2 with G27A, C28A, A29G, A52C
B12: target 1 MT 5'PFS AAG 3'PFS CAC (mixed)
RNA 1: B1 RNA 1
RNA 2: B1 RNA 2 with G27A, C28A, A29G, A52C, A54C
B13: target 1 MT 5'PFS AAG 3'PFS CAG (mixed)
RNA 1: B1 RNA 1
RNA 2: B1 RNA 2 with G27A, C28A, A29G, A52C, A54G
B14: target 1 MT 5'PFS CUA 3'PFS CCG (mixed)
RNA 1: B1 RNA 1
RNA 2: B1 RNA 2 with G27C, C28U, A52C, A53C, A54G
B15: target 1 MT 5'PFS CAU 3'PFS CCG (mixed)
RNA 1: B1 RNA 1
RNA 2: B1 RNA 2 with G27C, C28A, A29U, A52C, A53C, A54G
B16: target 1 MT 5'PFS GUA 3'PFS GUA (mixed)
RNA 1: B1 RNA 1
RNA 2: B1 RNA 2 with C28U, A52G, A53U
B17: target 1 A1C,G17C (mixed)
RNA 1: B1 RNA 1
RNA 2: B1 RNA 2 with C28U, G35C, A51C, A52C, A53C, A54G
B18: target 1 A9U,C21U (mixed)
RNA 1: B1 RNA 1
RNA 2: B1 RNA 2 with C28U, C31U, A43U, A52C, A53C, A54G
B19: target 1 MT 5'PFS GUA 3'PFS GCU (mixed)
RNA 1: B1 RNA 1
RNA 2: B1 RNA 2 with C28U, A52G, A53C, A54U
B20: target 1 MT 5'PFS GUA 3'PFS GCG (mixed)
RNA 1: B1 RNA 1
RNA 2: B1 RNA 2 with C28U, A52G, A53C, A54G
B21: target 1 MT 5'PFS GUA 3'PFS GCC (mixed)
RNA 1: B1 RNA 1
RNA 2: B1 RNA 2 with C28U, A52G, A53C, A54C
B22: target 1 MT 5'PFS GUA 3'PFS GCA (mixed)
RNA 1: B1 RNA 1
RNA 2: B1 RNA 2 with C28U, A52G, A53C
B23: target 1 MT 5'PFS ACA 3'PFS CUA (mixed)
RNA 1: B1 RNA 1
RNA 2: B1 RNA 2 with G27A, A52C, A53U
B24: target 1 MT 5'PFS CCU 3'PFS UCU (mixed)
RNA 1: B1 RNA 1
RNA 2: B1 RNA 2 with G27C, A29U, A52U, A53C, A54U
B25: target 1 MT 5'PFS CUA 3'PFS UCG (mixed)
RNA 1: B1 RNA 1
RNA 2: B1 RNA 2 with G27C, C28U, A52U, A53C, A54G
B26: target 1 MT 5'PFS GGC 3'PFS UGC (mixed)
RNA 1: B1 RNA 1
RNA 2: B1 RNA 2 with C28G, A29C, A52U, A53G, A54C
B27: target 1 MT 5'PFS CUA 3'PFS UCC (mixed)
RNA 1: B1 RNA 1
RNA 2: B1 RNA 2 with G27C, C28U, A52U, A53C, A54C
B28: target 1 MT 5'PFS GGC 3'PFS AGU (mixed)
RNA 1: B1 RNA 1
RNA 2: B1 RNA 2 with C28G, A29C, A53G, A54U
B29: target 1 A16U (mixed)
RNA 1: B1 RNA 1
RNA 2: B1 RNA 2 with C28U, A36U, A52C, A53C, A54G
B30: target 1 MT 5'PFS AGC 3'PFS AUC (mixed)
RNA 1: B1 RNA 1
RNA 2: B1 RNA 2 with G27A, C28G, A29C, A53U, A54C
B31: target 1 MT 5'PFS GAA 3'PFS CGU (mixed)
RNA 1: B1 RNA 1
RNA 2: B1 RNA 2 with C28A, A52C, A53G, A54U
B32: target 1 MT 5'PFS CAG 3'PFS AAA (mixed)
RNA 1: B1 RNA 1
RNA 2: B1 RNA 2 with G27C, C28A, A29G
B33: target 1 MT 5'PFS GGC 3'PFS AGG (mixed)
RNA 1: B1 RNA 1
RNA 2: B1 RNA 2 with C28G, A29C, A53G, A54G
B34: target 1 MT 5'PFS ACC 3'PFS UCC (mixed)
RNA 1: B1 RNA 1
RNA 2: B1 RNA 2 with G27A, A29C, A52U, A53C, A54C
B35: target 1 MT 5'PFS ACC 3'PFS UCG (mixed)
RNA 1: B1 RNA 1
RNA 2: B1 RNA 2 with G27A, A29C, A52U, A53C, A54G
B36: target 1 MT 5'PFS AGG 3'PFS CCG (mixed)
RNA 1: B1 RNA 1
RNA 2: B1 RNA 2 with G27A, C28G, A29G, A52C, A53C, A54G
B37: target 1 MT 5'PFS ACC 3'PFS UCU (mixed)
RNA 1: B1 RNA 1
RNA 2: B1 RNA 2 with G27A, A29C, A52U, A53C, A54U
B38: target 1 MT 5'PFS GAC 3'PFS AUC (mixed)
RNA 1: B1 RNA 1
RNA 2: B1 RNA 2 with C28A, A29C, A53U, A54C
B39: target 1 MT 5'PFS GAC 3'PFS AUA (mixed)
RNA 1: B1 RNA 1
RNA 2: B1 RNA 2 with C28A, A29C, A53U
B40: target 1 U3G,C7A (mixed)
RNA 1: B1 RNA 1
RNA 2: B1 RNA 2 with C28U, C45A, U49G, A52C, A53C, A54G

The binders below were run against T1, EsCas13d, nuclease-dead (assay: crRNA (strand 1, pre-loaded); Mg2+; 40 mM Tris-HCl pH 7.5, 150 mM NaCl, 6 mM MgCl2, 1 mM DTT, 0.1% Tween-20, 0.2 mg/ml BSA; 25 C; 10 min per concentration, then washed). Conditions: tags: His6-TwinStrep-SUMO cleaved; N-terminal SNAP kept (SNAP-Surface 488); label: 3' end held by stalled T7 RNA polymerase.

| Binder | Kd |
| --- | --- |
| B1 | 31.5 ± 7.5 nM |
| B2 | 16.5 ± 6 nM |
| B3 | 24 ± 6 nM |
| B4 | 13.8 ± 2.4 nM |
| B5 | 32 ± 11 nM |
| B6 | 18.3 ± 1.4 nM |
| B7 | 32.5 ± 8 nM |
| B8 | 23 ± 10.5 nM |
| B9 | 16.9 ± 4.1 nM |
| B10 | 41.5 ± 10 nM |
| B11 | 59 ± 29.5 nM |
| B12 | ~50.5 nM |
| B13 | ~37.5 nM |
| B14 | 5.05 ± 1.7 nM |
| B15 | 23 ± 8.5 nM |
| B16 | 12.1 ± 1.5 nM |
| B17 | 54 ± 15 nM |
| B18 | 8.7 ± 0.8 nM |
| B19 | 4.18 ± 0.37 nM |
| B20 | 7.29 ± 0.49 nM |

| Binder | Kd |
| --- | --- |
| B21 | 8.5 ± 1 nM |
| B22 | 13.8 ± 1.4 nM |
| B23 | 12.7 ± 3.5 nM |
| B24 | 14.4 ± 3.1 nM |
| B25 | 6 ± 0.95 nM |
| B26 | 8.6 ± 1.35 nM |
| B27 | 16.2 ± 4.8 nM |
| B28 | 17.1 ± 2.45 nM |
| B29 | 58 ± 9 nM |
| B30 | ~30.5 nM |
| B31 | 15.5 ± 4.5 nM |
| B32 | ~51.5 nM |
| B33 | 33.5 ± 5 nM |
| B34 | ~21 nM |
| B35 | 8.5 ± 3.6 nM |
| B36 | 28.3 ± 6.35 nM |
| B37 | 8.2 ± 3.2 nM |
| B38 | ~29 nM |
| B39 | 25 ± 7.05 nM |
| B40 | 7.19 ± 0.31 nM |
